Patent US11673916B2, “Neuroprotective peptides and methods of their use” (University of Pittsburgh—Of the Commonwealth System of …, priority 2020, dated 2023)

Target: T1, Kv2.1 surface clusters (Rattus norvegicus, UniProt P15387)
T1 construct: expressed in transfected cells; host or cells: primary rat cortical neurons (E16-17 Sprague-Dawley), Lipofectamine 2000
T1 sequence (P15387 1-857): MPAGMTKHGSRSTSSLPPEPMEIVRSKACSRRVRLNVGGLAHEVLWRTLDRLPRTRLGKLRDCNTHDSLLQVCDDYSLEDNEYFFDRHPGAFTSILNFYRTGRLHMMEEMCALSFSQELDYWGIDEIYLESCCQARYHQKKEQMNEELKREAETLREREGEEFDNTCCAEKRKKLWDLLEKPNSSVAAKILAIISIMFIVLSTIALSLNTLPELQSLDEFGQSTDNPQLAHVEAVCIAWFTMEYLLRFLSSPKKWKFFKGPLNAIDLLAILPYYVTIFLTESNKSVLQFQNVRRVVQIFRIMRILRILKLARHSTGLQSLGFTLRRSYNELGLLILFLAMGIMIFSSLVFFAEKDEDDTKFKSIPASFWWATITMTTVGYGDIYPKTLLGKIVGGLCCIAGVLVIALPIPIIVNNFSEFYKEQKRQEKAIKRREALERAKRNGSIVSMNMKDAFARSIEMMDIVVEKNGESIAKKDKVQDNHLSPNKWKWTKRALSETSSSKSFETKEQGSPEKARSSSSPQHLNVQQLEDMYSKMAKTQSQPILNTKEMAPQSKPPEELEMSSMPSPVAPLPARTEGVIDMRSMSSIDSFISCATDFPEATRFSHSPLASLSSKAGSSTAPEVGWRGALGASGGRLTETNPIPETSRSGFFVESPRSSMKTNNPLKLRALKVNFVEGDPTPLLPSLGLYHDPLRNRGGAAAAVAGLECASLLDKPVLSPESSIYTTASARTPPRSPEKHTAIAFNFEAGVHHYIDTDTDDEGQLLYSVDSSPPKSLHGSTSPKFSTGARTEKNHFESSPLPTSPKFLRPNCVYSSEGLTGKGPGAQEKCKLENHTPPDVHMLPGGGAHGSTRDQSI
Test: Kv2.1 surface cluster density in live Kv2.1-GFP-transfected cortical neurons treated with TAT-linked peptides
Assay type: cell-based
Details: 10 μM, two-hour treatment, mean±SEM (FIG. 12B)
Procedure: In vitro experiments utilized primary cortical neuronal cultures prepared from embryonic day 16-17 Sprague-Dawley rats of either sex in a protocol described previously (McCord et al., J Physiol (Lond). 592: 3511-3521, 2014). Timed-pregnant rats (Charles River Laboratories, Wilmington, Mass.) were sacrificed by CO2 inhalation. Embryonic cortices were dissociated with trypsin (0.6 mg/mL) and cells plated in sterile 6-well plates on poly-L-ornithine-coated glass coverslips at a density of 670,000 cells per well. Cytosine arabinoside (1-2 μM) was utilized to inhibit non-neuronal proliferation on day 14 in vitro (DIV); cultures were utilized at 21-25 DIV.
; Invitrogen, Carlsbad, Calif.). […]
To analyze Kv2.1 distribution in live primary cortical neurons, cells were transfected with both a tdTomato construct and a GFP-tagged Kv2.1 construct (O'Connell, et al., J Neurosci. 26: 9609-9618, 2006) and imaged on a Nikon A1+ confocal microscope (Nikon, Tokyo, Japan). […] For live images of transfected neurons, object count parameters were customized to define a Kv2.1 cluster as an area of high intensity GFP fluorescence (compared to background), measuring 0.05 μm^2 or larger (Schulien et al., J Physiol (Lond). 594: 2647-2659, 2016). Kv2.1 cluster density was calculated by normalizing the number of Kv2.1 clusters counted to the somatic area of each neuron (#Kv2.1 clusters/μm^2). […]

Sequence | mean Kv2.1 surface cluster density
YGRKKRRQRRRAIDAFTA [TAT-DP-2A, TAT-linked serine to alanine mutant of DP-2] | 0.14±0.02 #Kv2.1 clusters/μm^2 of neuronal soma
YGRKKRRQRRRDIDDFTD [TAT-DP-2D, TAT-linked peptide containing serine to aspartate mutations] | 0.08±0.02 #Kv2.1 clusters/μm^2 of neuronal soma
